Experiment in all cases: SEC
(In general: SEC sorts molecules by how far they enter the pores of the column.)

Series [1] deals with hGTPBP3 G domain (G249-P426) (human).
The target of series [2] is hGTPBP3 G domain P257H (human).
Series [3] concerns the target ΔN-hGTPBP3 (N154-K492) (human).
The target of series [4] is mature hGTPBP3 (hGTPBP3-ΔN20, T21-K492) (human).
Series [5] concerns the target hGTPBP3 G domain A322P (human).
Series [6] addresses hGTPBP3 G domain ΔG312-V319 (human).
Series [7] deals with the molecule itself.

The stoichiometry N is a count of units in the complex or per binding partner. “hGTPBP3 G domain (G249-P426) (domain or fragment)” gave a stoichiometry N in series [1] of 2. In the case of “hGTPBP3 G domain P257H (domain or fragment)”, the stoichiometry N in series [2] was determined as 2. In series [3], “ΔN-hGTPBP3 (N154-K492) (domain or fragment)” gave a stoichiometry N of 2. As for “mature hGTPBP3 (hGTPBP3-ΔN20, T21-K492) (enzyme)”, the stoichiometry N in series [4] was determined as 2. With “hGTPBP3 G domain A322P (domain or fragment)”, the stoichiometry N in series [5] is 2. On to “hGTPBP3 G domain ΔG312-V319 (domain or fragment)”, for which, in series [6], the stoichiometry N is 2.

B1: EcMnmE G domain (G216-G384) (domain or fragment, Escherichia coli, UniProt P25522 216-384, looked up)
chain: GMKVVIAGRPNAGKSSLLNALAGREAAIVTDIAGTTRDVLREHIHIDGMPLHIIDTAGLREASDEVERIGIERAWQEIEQADRVLFMVDGTTTDAVDPAEIWPEFIARLPAKLPITVVRNKADITGETLGMSEVNGHALIRLSARTGEGVDVLRNHLKQSMGFDTNMEG
For B1, the “stoichiometry N” value in series [7] turned out to be 2.

Source of the values: paper PMC7969015 (Nucleic Acids Research, 2021).
